Data from the supplement of paper PMC10567573.

B1: NET1 (parent)
chain: IKRTIRVLDVNNQSFREQEEPSNK
B2: ADD1 (parent)
chain: LRHSFQKQQREKTRWLNSGRGDEA

Variants of: B1
Test: protein stability index of a GFP-peptide fusion (GPS, HEK-293T) (PSI 1-6); higher = more stable
Details: c terminus: a fixed tail appended
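Note: lentivirally expressed fusions sorted by FACS into six bins by GFP to DsRed ratio, PSI derived from sequencing read proportions per bin multiplied by bin number.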

Protein stability index: each site, then its substitutions
S22: M 4.02 | Y 3.34 | P 3.64 | I 3.28 | L 2.64 | N 3.97 | R 3.85 | F 2.55 | V 3.23 | E 3.42 | A 3.04 | D 3.99 | K 3.87 | G 2.49 | C 3.59 | H 3.83 | Q 2.8 | W 1.92 | T 3.14
E20: M 3.16 | N 3.52 | W 2.31 | P 3.33 | S 3.57 | V 3.04 | L 3.16 | R 2.93 | Q 2.8 | K 2.9 | T 3.41 | I 3.37 | Y 2.75
P21: I 2.57 | Q 3.34 | V 3.22 | W 3.12 | L 3.93 | M 3.11 | R 3.68 | K 4.15 | Y 3.78 | D 3.97 | C 3.54 | S 4.27 | H 3.75 | F 2.35 | N 3.92 | G 2.72 | T 3.57 | A 3.29 | E 3.36
K24: N 3.99 | A 3.46 | C 3.4 | L 4.23 | T 4 | W 2.61 | Q 4.2 | R 3.52 | E 4.37 | D 3.79 | V 3.73 | I 3.29 | F 2.98 | P 3.55 | H 4.11 | G 3.83 | Y 3.61 | M 3.82 | S 4.07
N23: D 4.51 | Y 2.07 | S 3.97 | V 4.04 | A 2.99 | P 2.87 | F 2.96 | G 3.56 | L 3.16 | C 3.8 | E 3.96 | K 3.56 | T 3.73 | M 3.41 | H 2.28 | I 3.94 | Q 3.65

Variants of: B2
Test: as above
Details: c terminus: a fixed tail appended

Protein stability index: each site, then its substitutions
R2: H 4.03 | E 4.42 | V 3.11 | T 4.05 | A 4.17 | K 3.71 | Q 3.94 | M 3.85 | C 3.58 | G 3.97 | S 3.6 | F 2.99 | P 4.33 | W 2.92 | N 4.3 | I 3.06 | L 3 | D 5.03 | Y 3.26
F5: C 2.21 | E 4.71 | D 4.37 | A 4.44
S4: E 3.86 | C 3.01 | T 3.57 | G 3.45 | I 2.82 | V 3.15 | H 2.74 | K 3 | M 2.84 | A 3.59 | R 3.21 | Q 3.72 | F 2.92 | P 3.3 | Y 2.45 | W 3.04 | L 2.26 | D 3.88 | N 4.03
L1: Y 3.75 | W 2.92 | H 3.92 | T 4.32 | R 4.42 | N 4.11 | M 3.65 | V 3.71 | A 4.57 | F 3.8 | K 3.62 | Q 3.78 | C 3.23 | E 4.34 | P 4.04 | D 3.7 | I 3.92 | S 4.35 | G 4.21
H3: F 3.14 | Y 3.48 | N 3.65 | G 3.93 | W 2.28 | A 3.67 | E 3.98 | M 3.29 | I 3.16 | D 4.53 | Q 3.67 | T 3.94 | R 3.61 | S 4.03 | K 3.75 | C 2.31 | L 3.54 | P 3.77 | V 3.32
